Reference: patent EP2168984B1 (Abbott GmbH & Co. KG, dated 2012)
Substitutions are numbered along the chain they refer to. Names may count otherwise.

Experiments:
recombinant human IL-12 [1] = target: T1, recombinant human IL-12 (human, UniProt P29459 23-219; P29460 23-328); experiment: cell-based or functional assay
T1 sequence (looked up) 1: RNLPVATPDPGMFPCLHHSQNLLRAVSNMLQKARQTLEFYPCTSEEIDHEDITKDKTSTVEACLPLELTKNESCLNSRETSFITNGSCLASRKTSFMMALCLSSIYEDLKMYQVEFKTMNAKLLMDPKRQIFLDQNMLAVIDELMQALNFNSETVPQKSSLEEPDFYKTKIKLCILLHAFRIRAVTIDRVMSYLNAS
T1 sequence (looked up) 2: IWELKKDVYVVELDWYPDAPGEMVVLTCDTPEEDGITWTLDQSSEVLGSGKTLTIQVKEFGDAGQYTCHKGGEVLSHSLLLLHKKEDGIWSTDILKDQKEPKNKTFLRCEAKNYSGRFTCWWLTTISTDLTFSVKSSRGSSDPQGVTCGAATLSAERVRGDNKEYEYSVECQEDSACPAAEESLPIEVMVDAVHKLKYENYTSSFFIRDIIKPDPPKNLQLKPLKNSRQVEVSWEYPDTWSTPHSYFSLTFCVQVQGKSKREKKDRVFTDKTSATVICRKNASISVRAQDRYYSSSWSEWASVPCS

Cyno IL-12 = target: T2, Cyno IL-12 (cynomolgus monkey); experiment: cell-based or functional assay
T2 chain 1: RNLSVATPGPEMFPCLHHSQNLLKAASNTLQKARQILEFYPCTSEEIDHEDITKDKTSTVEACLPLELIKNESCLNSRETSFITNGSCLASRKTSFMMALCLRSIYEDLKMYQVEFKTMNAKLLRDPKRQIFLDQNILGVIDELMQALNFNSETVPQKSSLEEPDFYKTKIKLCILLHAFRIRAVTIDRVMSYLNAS
T2 chain 2: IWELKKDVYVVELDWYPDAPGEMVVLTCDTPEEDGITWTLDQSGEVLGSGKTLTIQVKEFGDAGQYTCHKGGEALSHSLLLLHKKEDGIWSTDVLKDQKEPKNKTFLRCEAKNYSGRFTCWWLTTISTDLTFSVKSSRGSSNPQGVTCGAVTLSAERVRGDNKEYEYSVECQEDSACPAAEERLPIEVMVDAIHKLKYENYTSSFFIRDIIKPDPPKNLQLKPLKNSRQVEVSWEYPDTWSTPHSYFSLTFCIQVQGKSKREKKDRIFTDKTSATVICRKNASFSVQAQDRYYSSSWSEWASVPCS

Dog IL-12 = target: T3, Dog IL-12 (dog, UniProt Q28267 26-222; Q28268 23-329); experiment: cell-based or functional assay
T3 sequence (looked up) 1: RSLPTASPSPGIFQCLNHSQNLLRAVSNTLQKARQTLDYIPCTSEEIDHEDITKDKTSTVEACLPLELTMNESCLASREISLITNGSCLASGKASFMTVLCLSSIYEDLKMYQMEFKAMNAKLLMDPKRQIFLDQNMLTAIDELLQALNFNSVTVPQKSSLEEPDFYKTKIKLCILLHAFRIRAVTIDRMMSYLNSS
T3 sequence (looked up) 2: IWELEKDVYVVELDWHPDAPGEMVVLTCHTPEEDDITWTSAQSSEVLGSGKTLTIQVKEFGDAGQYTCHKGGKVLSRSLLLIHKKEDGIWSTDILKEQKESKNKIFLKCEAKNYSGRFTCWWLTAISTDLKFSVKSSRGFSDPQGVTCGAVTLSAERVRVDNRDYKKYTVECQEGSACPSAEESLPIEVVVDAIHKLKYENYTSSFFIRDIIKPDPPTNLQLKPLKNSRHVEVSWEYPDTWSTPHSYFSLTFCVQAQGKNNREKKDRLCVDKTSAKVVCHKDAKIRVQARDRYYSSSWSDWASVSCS

Rhesus IL-12 = target: T4, Rhesus IL-12 (rhesus monkey, UniProt P48091 23-219; P48095 23-328); experiment: cell-based or functional assay
T4 sequence (looked up) 1: T2 chain 1
T4 sequence (looked up) 2: T2 chain 2

Baboon IL-12 = target: T5, Baboon IL-12 (baboon); experiment: cell-based or functional assay
T5 chain 1: T2 chain 1 with F82V, N85K, K110Q, M111I, R125M, K172R
T5 chain 2: T2 chain 2 with V230A

recombinant human IL-12 [2] = target: T1, recombinant human IL-12; experiment: cell-based or functional assay; remark: listed apart in the source
recombinant human IL-12 [3] = target: T1, recombinant human IL-12; experiment: cell-based or functional assay; remark: listed apart in the source
recombinant human IL-12 [4] = target: T6, recombinant human IL-12 (human, UniProt P29459 23-219; P29460 23-328); experiment: BIAcore SPR, immobilised IL-12
T6 construct: disulfide-linked p35/p40 heterodimer; also called hIL-12; rhIL-12
T6 sequence (looked up) 1: T1 sequence (looked up) 1
T6 sequence (looked up) 2: T1 sequence (looked up) 2

B1: Y61 IgG (antibody, V domains shown)
VH: QVQLVQSGGGVVQPGRSLRLSCAASGFTFSSYGMHWVRQAPGKGLEWVAFIRYDGSNKYYADSVKGRFTISRDNSKNTLYLQMKSLRAEDTAVYYCKTHGSHDNWGQGTMVTVSS
VL: SYVLTQPPSVSGTPGQRVTISCSGGRSWIGSNTVKWYQQLPGTAPKLLIYGNDQRPSGVPDRFSGSKSGTSASLAITGVQAEDEADYYCQSYDRGTHPALLFGTGTKVTVLG
- IC50 (M), species cross reactivity bioassay (recombinant human IL-12 [1]): 1.7e-10 M
- IC50 (M), species cross reactivity bioassay (Cyno IL-12): 2.2e-10 M

B2: J695 (Y61-L94Y- L50Y IgG*) (antibody, V domains shown)
VH: B1 VH with Q6E, K84N
VL: B1 VL with S1Q, Y2S, T13A, G25S, W28N, G51Y, V79L, G95Y
- IC50 (M), species cross reactivity bioassay (recombinant human IL-12 [1]): 5e-12 M
- IC50 (M), species cross reactivity bioassay (Dog IL-12): 3.5e-10 M
- IC50 (M), species cross reactivity bioassay (Rhesus IL-12): 1e-11 M
- IC50 (M), species cross reactivity bioassay (Cyno IL-12): 1e-11 M
- IC50 (M), species cross reactivity bioassay (Baboon IL-12): 1.5e-11 M
- PHA blast Assay IC50 (recombinant human IL-12 [2]): 0.0058 nM

B3: Y139 (scFv, V domains shown)
VH: B1 VH
VL: SYVLTQPPSVSGTPGQRVTISCSGGRSNIGSNTVKWYQQLPGTAPKLLIYGNDQRPSGVPDRFSGSKSGTSASLAITGVQAEDEADYYCQSYDRGSHPALTFGTGTKVTVL
- IFN gamma IC50 (recombinant human IL-12 [3]): 0.16 nM

B4: 177-H10 (scFv, V domains shown)
VH: B1 VH
VL: B3 VL with S96T, A99T, L100M, T101Y
- koff (recombinant human IL-12 [4]): 0.344 s⁻¹
